In publication PMC5526835:

Target: PCM1 (endogenous) [human (endogenous in HEK293A)]
Experiment: GFP-TRAP pull-down and immunoblot, quantified
Conditions: read off a plot, scale: relative protein level normalized to ponceau

response (EBSS (ES) for 2 hr): 0.85
response (EBSS + BAFA (EB) for 2 hr): 1.2
response (full medium (FM)): 1
Substance: GFP-GABARAP mutant G116A [human] / PCM1 (endogenous) [human (endogenous in HEK293A)] chain 1 G116A
